In US11746139B2, “IL-7Rαγc binding compounds” (MEDIKINE, INC., priority 2020, dated 2023):

Legend:
IL-7Rα = IL-7Rα (Homo sapiens, UniProt P16871); experiment: Competition binding ELISA with bn407::NA-HRP precomplex; conditions: bn407:NA-HRP 10 nM final; read-out: Competitive Binding ELISA bn407:NA-HRP (10 nMf) IC50 M
Rγc subunit = molecular target: T1, Rγc subunit (Homo sapiens, UniProt P31785); experiment: Phage competitive binding assay characterizing the Rγc ligand binding site; conditions: for Competition with Phage Clone SEQ ID NO: 198 (Family 1A) for binding to the Rγc subunit: phage clone 198, immobilized Rγc ECD; for Competition with Phage Clone SEQ ID NO: 224 (Family 1B) for binding to the Rγc subunit: phage clone 224, immobilized Rγc ECD; for Competition with Phage Clone SEQ ID NO: 236 (Family 2) for binding to the Rγc subunit: phage clone 236, immobilized Rγc ECD; for Competition with Phage Clone SEQ ID NO: 248 (Family 3) for binding to the Rγc subunit: phage clone 248, immobilized Rγc ECD; for Competition with Phage Clone SEQ ID NO: 266 (Family 4) for binding to the Rγc subunit: phage clone 266, immobilized Rγc ECD; for Competition with Phage Clone SEQ ID NO: 930 (Family 5) for binding to the Rγc subunit: phage clone 930, immobilized Rγc ECD
T1 construct: purchased ACRObiosystems, Inc. ILG-H5256

IL-7Rα subunit = IL-7Rα subunit (Homo sapiens, UniProt P16871); experiment: Phage competitive binding assay characterizing the IL-7Rα ligand binding site
Sequence of IL-7Rα subunit (P16871 21-236): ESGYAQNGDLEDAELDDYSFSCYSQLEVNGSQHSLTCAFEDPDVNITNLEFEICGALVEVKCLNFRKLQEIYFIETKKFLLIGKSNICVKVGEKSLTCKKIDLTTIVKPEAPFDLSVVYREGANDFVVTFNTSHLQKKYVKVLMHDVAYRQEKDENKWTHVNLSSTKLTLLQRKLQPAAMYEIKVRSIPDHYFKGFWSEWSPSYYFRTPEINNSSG

T1 sequence (P31785 23-254): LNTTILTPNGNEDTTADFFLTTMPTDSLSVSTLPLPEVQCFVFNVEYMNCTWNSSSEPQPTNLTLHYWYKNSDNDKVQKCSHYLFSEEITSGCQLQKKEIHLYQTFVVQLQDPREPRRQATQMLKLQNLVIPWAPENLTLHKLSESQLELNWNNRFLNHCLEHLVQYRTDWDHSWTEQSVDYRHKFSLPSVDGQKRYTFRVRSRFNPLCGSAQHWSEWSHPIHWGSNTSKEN
Sequence of IL-7Rα (P16871 21-236): as the sequence (P16871 21-236) above

Molecule | IC50 (IL-7Rα) [µM] | Competition with Phage Clone SEQ ID NO: 198 (Family 1A) for binding to the Rγc subunit (Rγc subunit) | Competition with Phage Clone SEQ ID NO: 224 (Family 1B) for binding to the Rγc subunit (Rγc subunit) | Competition with Phage Clone SEQ ID NO: 236 (Family 2) for binding to the Rγc subunit (Rγc subunit) | Competition with Phage Clone SEQ ID NO: 248 (Family 3) for binding to the Rγc subunit (Rγc subunit) | Competition with Phage Clone SEQ ID NO: 266 (Family 4) for binding to the Rγc subunit (Rγc subunit) | Competition with Phage Clone SEQ ID NO: 930 (Family 5) for binding to the Rγc subunit (Rγc subunit) | further results
CC[C@H](C)[C@H](N)C(=O)N1CCC[C@H]1C(=O)N[C@@H](Cc1c[nH]c2ccccc12)C(=O)N[C@H]1CSSC[C@@H](C(=O)N[C@@H](C)C(=O)N[C@@H](C)C(=O)N[C@@H](CC(C)C)C(=O)N[C@@H](CCCNC(=N)N)C(=O)N[C@@H](CCC(N)=O)C(=O)N[C@@H](CCSC)C(=O)NCC(=O)NCC(=O)O)NC(=O)[C@H](CCC(N)=O)NC(=O)[C@H](CC(C)C)NC(=O)CNC(=O)CNC(=O)[C@@H]2CCCN2C(=O)[C@H](CC(=O)O)NC(=O)[C@H](CC(C)C)NC(=O)[C@H]([C@@H](C)O)NC1=O [SEQ ID NO: 421, I P W C T L D P G G L Q C A A L R Q M] | 7.58 |  |  |  |  |  |  | 
CC[C@H](C)[C@H](N)C(=O)N1CCC[C@H]1C(=O)N[C@@H](Cc1c[nH]c2ccccc12)C(=O)N[C@H]1CSSC[C@@H](C(=O)N[C@@H](C)C(=O)N[C@@H](Cc2c[nH]cn2)C(=O)N[C@@H](CC(C)C)C(=O)N[C@@H](CCCNC(=N)N)C(=O)N[C@@H](CCC(N)=O)C(=O)N[C@@H](CCSC)C(=O)NCC(=O)NCC(=O)O)NC(=O)[C@H](CCC(N)=O)NC(=O)[C@H](CC(C)C)NC(=O)CNC(=O)CNC(=O)[C@@H]2CCCN2C(=O)[C@H](CC(=O)O)NC(=O)[C@H](CC(C)C)NC(=O)[C@H]([C@@H](C)O)NC1=O [SEQ ID NO: 424, I P W C T L D P G G L Q C A H L R Q M] | 1.52 |  |  |  |  |  |  | 
S L L K C Y N A S T C A S V F [SEQ ID NO: 930] |  | −^2 | − | − | − | − | + (Rγc ligand competes with phage binding.) | 
CC[C@H](C)[C@H](N)C(=O)N1CCC[C@H]1C(=O)N[C@@H](Cc1c[nH]c2ccccc12)C(=O)N[C@H]1CSSC[C@@H](C(=O)N[C@@H](C)C(=O)N[C@@H](Cc2c[nH]c3ccccc23)C(=O)N[C@@H](CC(C)C)C(=O)N[C@@H](CCCNC(=N)N)C(=O)N[C@@H](C)C(=O)N[C@@H](C)C(=O)NCC(=O)NCC(=O)O)NC(=O)[C@H](CCC(N)=O)NC(=O)[C@H](CC(C)C)NC(=O)CNC(=O)CNC(=O)[C@@H]2CCCN2C(=O)[C@H](CC(=O)O)NC(=O)[C@H](CC(C)C)NC(=O)[C@H]([C@@H](C)O)NC1=O [SEQ ID NO: 433, I P W C T L D P G G L Q C A W L R A A] | 1.07 |  |  |  |  |  |  | 
CC[C@H](C)[C@H](N)C(=O)N1CCC[C@H]1C(=O)N[C@@H](Cc1c[nH]c2ccccc12)C(=O)N[C@H]1CSSC[C@@H](C(=O)N[C@@H](C)C(=O)N[C@@H](Cc2c[nH]c3ccccc23)C(=O)N[C@@H](CC(C)C)C(=O)N[C@@H](CCCCN)C(=O)N[C@@H](CCC(N)=O)C(=O)N[C@@H](CCSC)C(=O)NCC(=O)NCC(=O)O)NC(=O)[C@H](CCC(N)=O)NC(=O)[C@H](CC(C)C)NC(=O)CNC(=O)CNC(=O)[C@@H]2CCCN2C(=O)[C@H](CC(=O)O)NC(=O)[C@H](CC(C)C)NC(=O)[C@H]([C@@H](C)O)NC1=O [SEQ ID NO: 429, I P W C T L D P G G L Q C A W L K Q M] | 0.466 |  |  |  |  |  |  | 
V V C Q D W E G V E L C W Q [SEQ ID NO: 965] |  |  |  |  |  |  |  | Competition with Phage Clone SEQ ID NO: 5 (Family 1) for binding to the IL-7Rα subunit (IL-7Rα subunit; phage clone 5, immobilized IL-7Rα ECD): 0; Competition with Phage Clone SEQ ID NO: 43 (Family 3A) for binding to the IL-7Rα subunit (IL-7Rα subunit; phage clone 43, immobilized IL-7Rα ECD): 0; Competition with Phage Clone SEQ ID NO: 104 (Family 3B) for binding to the IL-7Rα subunit (IL-7Rα subunit; phage clone 104, immobilized IL-7Rα ECD): 0; Competition with Phage Clone SEQ ID NO: 313 (Family 2) for binding to the IL-7Rα subunit (IL-7Rα subunit; phage clone 313, immobilized IL-7Rα ECD): 0; Competition with Phage Clone SEQ ID NO: 965 (N/A) for binding to the IL-7Rα subunit (IL-7Rα subunit; phage clone 965, immobilized IL-7Rα ECD): 0
Y D C R I A Q V G E L C D L [SEQ ID NO: 58, IL-2Rβ Ligand, reference compound] |  | − | − | − | − | − | − | Competition for binding to the binding site with the group of Rγc ligands (Rγc subunit): does not compete
CC[C@H](C)[C@H](N)C(=O)N1CCC[C@H]1C(=O)N[C@@H](Cc1c[nH]c2ccccc12)C(=O)N[C@H]1CSSC[C@@H](C(=O)N[C@@H](C)C(=O)N[C@@H](Cc2c[nH]c3ccccc23)C(=O)N[C@H](C(=O)N[C@@H](CCCNC(=N)N)C(=O)N[C@@H](CCC(N)=O)C(=O)N[C@@H](CCSC)C(=O)NCC(=O)NCC(=O)O)C(C)C)NC(=O)[C@H](CCC(N)=O)NC(=O)[C@H](CC(C)C)NC(=O)CNC(=O)CNC(=O)[C@@H]2CCCN2C(=O)[C@H](CC(=O)O)NC(=O)[C@H](CC(C)C)NC(=O)[C@H]([C@@H](C)O)NC1=O [SEQ ID NO: 427, I P W C T L D P G G L Q C A W V R Q M] | 0.411 |  |  |  |  |  |  | 
CC[C@H](C)[C@H](N)C(=O)N1CCC[C@H]1C(=O)N[C@@H](Cc1c[nH]c2ccccc12)C(=O)N[C@H]1CSSC[C@@H](C(=O)N[C@@H](C)C(=O)N[C@@H](Cc2c[nH]c3ccccc23)C(=O)N[C@@H](CC(C)C)C(=O)N[C@@H](C)C(=O)N[C@@H](CCC(N)=O)C(=O)N[C@@H](CCSC)C(=O)NCC(=O)NCC(=O)O)NC(=O)[C@H](CCC(N)=O)NC(=O)[C@H](CC(C)C)NC(=O)CNC(=O)CNC(=O)[C@@H]2CCCN2C(=O)[C@H](CC(=O)O)NC(=O)[C@H](CC(C)C)NC(=O)[C@H]([C@@H](C)O)NC1=O [SEQ ID NO: 428, I P W C T L D P G G L Q C A W L A Q M] | 0.49 |  |  |  |  |  |  | 
D C S M W E J G V E L C W [SEQ ID NO: 224] |  | + (Rγc ligand competes with phage binding.) | + (Rγc ligand competes with phage binding.) | + (Rγc ligand competes with phage binding.) | + (Rγc ligand competes with phage binding.) | + (Rγc ligand competes with phage binding.) | − | 
CC[C@H](C)[C@H](N)C(=O)N1CCC[C@H]1C(=O)N[C@@H](Cc1c[nH]c2ccccc12)C(=O)N[C@H]1CSSC[C@@H](C(=O)N[C@@H](C)C(=O)N[C@@H](Cc2c[nH]c3ccccc23)C(=O)N[C@H](C(=O)N[C@@H](CCCNC(=N)N)C(=O)N[C@@H](CCC(N)=O)C(=O)N[C@@H](CCSC)C(=O)NCC(=O)NCC(=O)O)[C@@H](C)CC)NC(=O)[C@H](CCC(N)=O)NC(=O)[C@H](CC(C)C)NC(=O)CNC(=O)CNC(=O)[C@@H]2CCCN2C(=O)[C@H](CC(=O)O)NC(=O)[C@H](CC(C)C)NC(=O)[C@H]([C@@H](C)O)NC1=O [SEQ ID NO: 426, I P W C T L D P G G L Q C A W I R Q M] | 0.378 |  |  |  |  |  |  | 
R T C T E W E N V V L C W V [SEQ ID NO: 202] |  | +^1 (Rγc ligand competes with phage binding.) | + (Rγc ligand competes with phage binding.) | + (Rγc ligand competes with phage binding.) | + (Rγc ligand competes with phage binding.) | + (Rγc ligand competes with phage binding.) | − | 
M C W L E W G E W V G S C L [SEQ ID NO: 236] |  | + (Rγc ligand competes with phage binding.) | + (Rγc ligand competes with phage binding.) | + (Rγc ligand competes with phage binding.) | + (Rγc ligand competes with phage binding.) | + (Rγc ligand competes with phage binding.) | − | 
CC[C@H](C)[C@H](N)C(=O)N1CCC[C@H]1C(=O)N[C@@H](Cc1c[nH]c2ccccc12)C(=O)N[C@H]1CSSC[C@@H](C(=O)N[C@@H](C)C(=O)N[C@@H](Cc2c[nH]c3ccccc23)C(=O)N[C@@H](CC(C)C)C(=O)N[C@@H](CCCNC(=N)N)C(=O)N[C@@H](C)C(=O)N[C@@H](CCSC)C(=O)NCC(=O)NCC(=O)O)NC(=O)[C@H](CCC(N)=O)NC(=O)[C@H](CC(C)C)NC(=O)CNC(=O)CNC(=O)[C@@H]2CCCN2C(=O)[C@H](CC(=O)O)NC(=O)[C@H](CC(C)C)NC(=O)[C@H]([C@@H](C)O)NC1=O [SEQ ID NO: 431, I P W C T L D P G G L Q C A W L R A M] | 0.521 |  |  |  |  |  |  | 
